Here are results for 35 molecules from patent publication US8613931B2, “Compounds for treating beta-amyloidoses” (Affiris AG, priority 2008, dated 2013).

Assay [1] concerns monoclonal antibody MV-001. Kind of assay: In vitro binding assay (ELISA), parental antibody MV-001. The conditions noted are these: peptide-BSA on ELISA plate; OD halfmax, dilution factor 1:X of parental AB MV-001. The arrangement: species or system C57/Bl6 mice. As to the method:
1. In vitro binding assay (ELISA)
Peptides derived from Phage Display as well as variants thereof were coupled to BSA and bound to ELISA plates (1 μM; as indicated in the respective figures) and subsequently incubated with the monoclonal antibody that was used for the screening procedure to analyse binding capacity of identified peptides.
In general terms: An ELISA detects its analyte on a solid surface through an enzyme-linked reagent.

For assay [2], the system named is monoclonal antibody MV-001. The experiment in a line: In vitro inhibition assay (ELISA), MV-001 binding to original epitope. The arrangement: species or system C57/Bl6 mice. The conditions noted are these: OD at 10 μg peptide compared to original peptide. As for the experimental part:
2. In vitro inhibition assay (ELISA)
Different amounts of peptides (concentrations ranging from 10 μg to 0.08 μg; serial dilutions), derived from Phage Display were incubated with the monoclonal antibody that was used for the screening procedure. Peptides diminishing subsequent binding of the antibody to the original epitope coated on ELISA plates were considered as inhibiting in this assay.

The target of assay [3] is monoclonal antibody MV-001. Kind of assay: ELISA, peptide-BSA coated, MV-001. To be noted: for Binding Capacity: scale: code.
The target in assay [4] is monoclonal antibody MV-001. Kind of assay: inhibition ELISA; competitor: coated original epitope p4371. The conditions noted are these: for Inhibition Capacity: scale: code.

Turning to SEFKHC [p4801], the “Binding Capacity” value in assay [1] is 3 (strong binding :>20000). The “Inhibition Capacity” value in assay [2] is listed as 1 (Weaker than original epitope (OD of 10 μg peptide below 3 times of original peptide)).
Regarding NWFPHPC [p4392], the “Binding Capacity” value in assay [1] was 1 (weak binding :<4000). Moreover, the “Inhibition Capacity” value in assay [2] is 1 (Weaker than original epitope (OD of 10 μg peptide below 3 times of original peptide)).
The matching figures for CSEFKH [p4800]: 3 (strong binding :>20000) and 2 (strong inhibition (as original epitope; OD of 10 μg peptide below 2 times of original peptide)).
Turning to TPFRHTC [p4384], the “Inhibition Capacity” value in assay [2] is listed as 1 (Weaker than original epitope (OD of 10 μg peptide below 3 times of original peptide)).
For DGLLFKHC [p4741], in assay [1], the “Binding Capacity” value is 3 (strong binding :>20000). Further, the “Inhibition Capacity” value in assay [2] is 1 (Weaker than original epitope (OD of 10 μg peptide below 3 times of original peptide)).
The matching figures for EELRHSVC [p4746]: 3 (strong binding :>20000) and 1 (Weaker than original epitope (OD of 10 μg peptide below 3 times of original peptide)).
As for SHFRHGC [p4389], in assay [2], the “Inhibition Capacity” value is 1 (Weaker than original epitope (OD of 10 μg peptide below 3 times of original peptide)).
CHEFRH [p4802]: the “Binding Capacity” value in assay [1] was 3 (strong binding :>20000). Further, the “Inhibition Capacity” value in assay [2] is listed as 2 (strong inhibition (as original epitope; OD of 10 μg peptide below 2 times of original peptide)).
Regarding QDFRHYC [p4380], in assay [2], the “Inhibition Capacity” value is recorded as 1 (Weaker than original epitope (OD of 10 μg peptide below 3 times of original peptide)).
Still for that read-out and setting: then TSFRHGC [p4382], with 1 (Weaker than original epitope (OD of 10 μg peptide below 3 times of original peptide)); and LPFRHGC [p4388], with 1 (Weaker than original epitope (OD of 10 μg peptide below 3 times of original peptide)).
As for HEFRHC [p4803], the “Binding Capacity” value in assay [1] was 3 (strong binding :>20000). Further, in assay [2], the “Inhibition Capacity” value is reported as 2 (strong inhibition (as original epitope; OD of 10 μg peptide below 2 times of original peptide)).
On to SAFRHHC [p4387], for which the “Inhibition Capacity” value in assay [2] was 1 (Weaker than original epitope (OD of 10 μg peptide below 3 times of original peptide)).
Still for that read-out and setting: the value for QFKHDLC [p4391] was 1 (Weaker than original epitope (OD of 10 μg peptide below 3 times of original peptide)).
As to EEFKYSC [p4393], in assay [2], the “Inhibition Capacity” value was 1 (Weaker than original epitope (OD of 10 μg peptide below 3 times of original peptide)).

B1: p4393 (peptide)
peptide: EEFKYSC
With B1, in assay [3], the Binding Capacity was determined as 2. The Inhibition Capacity (code (weaker than original epitope)) in assay [4] was found to be 1.

B2: p4800 (peptide)
peptide: CSEFKH
In the case of B2, the Binding Capacity in assay [3] amounted to 3. In assay [4], this molecule returned an Inhibition Capacity of 2.

B3: p4385 (peptide)
peptide: SQFRHYC
As for B3, in assay [3], the Binding Capacity was 2. The Inhibition Capacity (code (weaker than original epitope)) in assay [4] was 1.

B4: p4387 (peptide)
peptide: SAFRHHC
For the molecule B4, the Binding Capacity in assay [3] was 2. The molecule also displayed an Inhibition Capacity (code (weaker than original epitope)) in assay [4] of 1.

B5: p4740 (peptide)
peptide: ADHDFRHC
B5 came in with a Binding Capacity in assay [3] of 3. This molecule also showed an Inhibition Capacity (code (weaker than original epitope)) in assay [4] of 1.

B6: p4801 (peptide)
peptide: SEFKHC
B6 had a Binding Capacity in assay [3] of 3. For the same molecule, the Inhibition Capacity (code (weaker than original epitope)) in assay [4] is 1.

B7: p4741 (peptide)
peptide: DGLLFKHC
As for B7, the Binding Capacity in assay [3] was determined as 3. The molecule also showed an Inhibition Capacity (code (weaker than original epitope)) in assay [4] of 1.

B8: p4390 (peptide)
peptide: ILFRHGC
In assay [3], B8 registered a Binding Capacity of 3. The molecule further showed an Inhibition Capacity (code (weaker than original epitope)) in assay [4] of 1.

B9: p4391 (peptide)
peptide: QFKHDLC
B9 showed a Binding Capacity in assay [3] of 2. The Inhibition Capacity (code (weaker than original epitope)) in assay [4] amounted to 1.

B10: p4715 (peptide)
peptide: TLHEFRHC
Regarding B10, the Binding Capacity in assay [3] is 3. Besides, the Inhibition Capacity in assay [4] was found to be 2.

B11: p4738 (peptide)
peptide: QSEFKHWC
In the case of B11, the Binding Capacity in assay [3] was found to be 3. In addition, the Inhibition Capacity (code (weaker than original epitope)) in assay [4] came out at 1.

B12: p4392 (peptide)
peptide: NWFPHPC
In assay [3], B12 had a Binding Capacity (code (weak binding, OD halfmax 1:<4000)) of 1. Besides, the Inhibition Capacity (code (weaker than original epitope)) in assay [4] was determined as 1.

B13: p4753 (peptide)
peptide: TEFRHKAC
Turning to B13, the Binding Capacity in assay [3] amounted to 3. In addition, the Inhibition Capacity in assay [4] came to 2.

B14: p4730 (peptide)
peptide: DEHPFRHC
Take B14: the Binding Capacity in assay [3] was determined as 3. Moreover, the Inhibition Capacity (code (weaker than original epitope)) in assay [4] is 1.

B15: p4388 (peptide)
peptide: LPFRHGC
In assay [3], B15 came in with a Binding Capacity of 2. The same molecule returned an Inhibition Capacity (code (weaker than original epitope)) in assay [4] of 1.

B16: p4746 (peptide)
peptide: EELRHSVC
Turning to B16, the Binding Capacity in assay [3] amounted to 3. Further, the Inhibition Capacity (code (weaker than original epitope)) in assay [4] worked out at 1.

B17: p4707 (peptide)
peptide: SPNQFRHC
With B17, the Binding Capacity in assay [3] was 3. Besides, in assay [4], the Inhibition Capacity (code (weaker than original epitope)) was found to be 1.

B18: p4725 (peptide)
peptide: THTDFRHC
In assay [3], B18 gave a Binding Capacity of 3. In assay [4], the Inhibition Capacity (code (weaker than original epitope)) turned out to be 1.

B19: p4386 (peptide)
peptide: LMFRHNC
Consider B19, for which the Binding Capacity in assay [3] was found to be 3. The same molecule returned an Inhibition Capacity (code (weaker than original epitope)) in assay [4] of 1.

B20: p4389 (peptide)
peptide: SHFRHGC
In turn, B20 had a Binding Capacity in assay [3] of 2. The Inhibition Capacity (code (weaker than original epitope)) in assay [4] was 1.
